By Kd is commonly meant the concentration at which binding is half-saturated.

The target in this assay is T1, gp78 RING (Homo sapiens, UniProt Q9UKV5).
T1 construct: The gp78-RING construct (aa 313 to 393) was generated by inserting a stop codon; GST (pGEX-4T-2 vector) (N); made in house
In words: NMR titration (1H-15N HSQC CSP) of 15N-UBE2G2 with or without G2BR with gp78 RING. The format is binding. As to conditions: overall value; 15N-UBE2G2 150 μM, gp78 RING 0-450 μM, 50 mM Tris-Cl pH 7.0, 0.5 mM TCEP, 100 μM zinc sulfate, 0.05% sodium azide; G2BR 1:1.1 where present; read-out: affinity for gp78 RING (Kd) by NMR CSP. Here is the method:
Fig 5 Titration of UBE2G2:G2BR with gp78 RING. Superposition of ^15N-^1H^N HSQC NMR spectra for apo-UBE2G2 and UBE2G2 bound to G2BR^AUP1 (A) or G2BR^gp78 (B). Spectra for UBE2G2 (150 μM) bound to G2BR were acquired at a 1:1.1 ratio. (C) Superposition of the spectra for apo-UBE2G2, UBE2G2:G2BR^AUP1, and UBE2G2:G2BR^gp78, illustrating the equivalence of perturbations between G2BR^AUP1 and G2BR^gp78. (D) Expansion of overlaid resonances corresponding to UBE2G2 residues showing fast exchange binding kinetics for gp78 RING binding to both UBE2G2:G2BR^AUP1 (left panels) and UBE2G2:G2BR^gp78 (right panels). Spectra were acquired at ratios of RING to UBE2G2:G2BR of 0, 0.33, 0.67, 1.0, 2.0, and 3.0. […]
UBE2G2 and gp78 RING used in titration experiments were expressed and purified as previously described. […] The changes in chemical shift for each peak in the 2D spectrum upon gp78 RING binding was calculated using the following CSP equation: ΔCSP=(ΔδN/5)^2+(ΔδH)^2/2 (1)
The CSPs calculated from Eq 1 were plotted versus the molar ratio of gp78 RING to UBE2G2:G2BR, and the data were fit using the following equation to calculate the dissociation constant (Kd), where x is the ligand-to-protein ratio: ΔCSP=ΔCSPmax/2*1+x+Kd/P−(1+x+Kd)^2/P−4x (2)

T1 sequence (Q9UKV5 313-393, one chain of several): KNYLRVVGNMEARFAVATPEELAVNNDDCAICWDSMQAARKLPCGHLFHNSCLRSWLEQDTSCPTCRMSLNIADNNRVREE

B1: UBE2G2: ERAD ubiquitin-conjugating enzyme (E2); purified in vitro, N-terminally MYC-tagged in cells (protein)
chain: MAGTALKRLMAEYKQLTLNPPEGIVAGPMNEENFFEWEALIMGPEDTCFEFGVFPAILSFPLDYPLSPPKMRFTCEMFHPNIYPDGRVCISILHAPGDDPMGYESSAERWSPVQSVEKILLSVVSMLAEPNDESGANVDASKMWRDDREQFYKIAKQIVQKSLGL
In the case of B1, the dissociation constant (Kd) came out at 207 ± 6.4 µM.

These data come from paper PMC8699718, “A structurally conserved site in AUP1 binds the E2 enzyme UBE2G2 and is essential for ER-associated degradation” (PLoS Biology, 2021).
